From US6673902B2, “Cyclin D binding factor, and uses thereof” (St. Jude Children's Research Hospital, priority 1996, dated 2004)

B1: Fli1: Ets family member (protein, UniProt P26323 1-452, looked up)
Friend leukemia integration 1 …: MDGTIKEALSVVSDDQSLFDSAYGAAAHLPKADMTASGSPDYGQPHKINPLPPQQEWINQPVRVNVKREYDHMNGSRESPVDCSVSKCNKLVGGGEANPMNYNSYMDEKNGPPPPNMTTNERRVIVPADPTLWTQEHVRQWLEWAIKEYGLMEIDTSFFQNMDGKELCKMNKEDFLRATSAYNTEVLLSHLSYLRESSLLAYNTTSHTDQSSRLNVKEDPSYDSVRRGAWNNNMNSGLNKSPLLGGSQTMGKNTEQRPQPDPYQILGPTSSRLANPGSGQIQLWQFLLELLSDSANASCITWEGTNGEFKMTDPDEVARRWGERKSKPNMNYDKLSRALRYYYDKNIMTKVHGKRYAYKFDFHGIAQALQPHPTETSMYKYPSDISYMPSYHAHQQKVNFVPSHPSSMPVTSSSFFGAASQYWTSPTAGIYPNPSVPRHPNTHVPSHLGSYY
B2: ARF: ARF tumor suppressor protein (protein)
chain: MGRRFLVTVRIQRAGRPLQERVFLVKFVRSRRPRTASCALAFVNMLLRLERILRRGPHRNPGPGDDDGQRSRSSSSAQLRCRFELRGPHYLLPPGARRSAGRLPGHAGGAARVRGSAGCARCLGSPAARLGPRAGTSRHRAIFAFRWVLFVFRWVVFVYRWERRPDRRA

What was measured:
[1] = tested on: 281 bp ARF promoter fragment; assay: Transactivation of ARF promoter-luciferase reporter in NIH-3T3 cells; format: cell-based, mouse; conditions: NIH-3T3, 281 bp ARF promoter fragment-luciferase
Description: Transactivation assays. NIH-3T3 cells were transfected with 4 μg of pGL2-ARFpro BamHI or its DMP1 binding site mutant, with or without increasing amount of pFLEX-DMP1, pEVRFO-Ets1, pCMV-Ets2, pRcRSV-Elfl, pdEB-Fli1, p(IEB-EWS-Fli1 or pCMV-E2F-1 (89-437), and 4 μg β-actin SEAP control vectors [Inoue and Sherr, Mol. Cell. Biol. 18: 1590-1600 (1998); Inoue et al., J. Biol. Chem. 273:29188-29194 (1998); Davis and Roussel, Gene 171:265-269 (1996); Baily et al., Mol. Cell. Biol. 14:3230-3241 (1994)]. Transfections and normalization of luciferase levels with internal control SEAP levels were performed as described [Inoue and Sherr, Mol. Cell. Biol. 18:1590-1600 (1998)].
Similarly, DMP1 deletion mutants defective in transactivation [Inoue and Sherr, Mol. Cell. […] Mutation of the DMP1 binding site within the ARF promoter [changing CCCGGATGC, (SEQ ID NO:33) to CCCGTCGAC, (SEQ ID NO:42)] also completely abolished transactivation by wild-type DMP1 (FIG. 14C, mutant reporter). Therefore, sequences within the −189 to −181 ARF promoter segment were the only ones responsible for DMP1-mediated transactivation. Although Ets1 could bind to a 23 base pair oligonucleotide containing the DMP1 consensus site (FIG. 14B), several Ets proteins were unable to induce significant reporter gene expression from the more complex 281 base pair ARF promoter (FIG. 14C). […]

wild-type MEFs = assay: Apoptosis assay in wild-type MEFs deprived of serum; format: cell-based, mouse
Description: Apoptosis assays. Wild-type MEFs infected with the indicated retroviruses for 36 hours were starved for serum for 24 hours. Viability was determined by trypan blue dye exclusion, and DNA fragmentation was monitored by a terminal deoxynuclectidyl transferase (FACS-TUNEL) assay and by measurement of subdiploid DNA content of propidium iodide-stained nuclei [Zindy et al., Genes Dev. 12:2424-2433 (1998)].
On the other hand, MEFs overexpressing c-Myc, E2F-1, or E1A are exquisitely sensitive to apoptosis. […] 12:2424-2433 (1998); De Stanchina et al., Genes Dev. 12:2434-2442 (1998)].

| Molecule | ARF promoter reporter gene expression [1] | apoptosis / cell death (wild-type MEFs) |
| --- | --- | --- |
| B1 | minimal activity | – |
| B2 | – | did not trigger apoptosis |
